Assay results: patent US20150086555A1

Legend:
Conditions in all cases: remark: other sources report otherwise
[1] = molecular target: recombinant soluble homotrimeric HA of A/Anhui/1/05 (H5N1) (Influenza A virus A/Anhui/1/2005(H5N1)); test: HA microarray, BCC supernatant
[2] = molecular target: T1, recombinant soluble homotrimeric HA of A/California/4/09 (H1N1) (Influenza A virus A/California/04/2009(H1N1)); test: HA microarray, BCC supernatant
[3] = molecular target: T2, recombinant soluble homotrimeric HA of A/Egypt/3300-NAMRU3/08 (H5N1) (Influenza A virus A/Egypt/3300-NAMRU3/2008(H5N1)); test: HA microarray, BCC supernatant
[4] = molecular target: recombinant soluble homotrimeric HA of A/Hong Kong/2108/03 (H9N2) (Influenza A virus A/HK/2108/2003(H9N2)); test: HA microarray, BCC supernatant
[5] = molecular target: T3, recombinant soluble homotrimeric HA of A/Indonesia/5/05 (H5N1) (Influenza A virus A/Indonesia/5/2005(H5N1)); test: HA microarray, BCC supernatant
[6] = molecular target: T4, recombinant soluble homotrimeric HA of A/Japan/305/57 (H2N2) (Influenza A virus A/Japan/305/1957(H2N2)); test: HA microarray, BCC supernatant
[7] = molecular target: T5, recombinant soluble homotrimeric HA of A/Netherlands/219/03 (H7N7) (Influenza A virus A/Netherlands/219/03(H7N7)); test: HA microarray, BCC supernatant
[8] = molecular target: T6, recombinant soluble homotrimeric HA of A/Vietnam/1203/04 (H5N1) (Influenza A virus A/VietNam/1203/2004(H5N1)); test: HA microarray, BCC supernatant
[9] = molecular target: T7, recombinant soluble homotrimeric HA of A/Wisconsin/67/05 (H3N2) (Influenza A virus A/Wisconsin/67/2005(H3N2)); test: HA microarray, BCC supernatant
[10] = molecular target: T8, recombinant soluble homotrimeric HA of A/chicken/Vietnam/NCVD-016/08 (H5N1) (Influenza A virus A/chicken/Vietnam/NCVD-016/2008(H5N1)); test: HA microarray, BCC supernatant
[11] = molecular target: T9, recombinant soluble homotrimeric HA of A/duck/Yangzhou/02/05 (H8N4) (Influenza A virus A/duck/Yangzhou/02/2005(H8N4)); test: HA microarray, BCC supernatant
[12] = molecular target: recombinant soluble homotrimeric HA of A/northern shoveler/California/HKWF115/07 (H6) (Influenza A virus A/northern shoveler/California/HKWF115/2007(H6N1)); test: HA microarray, BCC supernatant
[13] = molecular target: T10, recombinant soluble homotrimeric HA of A/swine/Ontario/01911-2/99 (H4N6) (Influenza A virus A/Swine/Ontario/01911-2/99 (H4N6)); test: HA microarray, BCC supernatant
[14] = molecular target: recombinant homotrimeric HA A/California/4/09 H1N1 (Influenza A virus A/California/04/2009(H1N1)); test: protein microarray, purified IgG, trimeric HA
[15] = molecular target: recombinant homotrimeric HA A/Egypt/3300-NAMRU3/08 H5N1 (Influenza A virus A/Egypt/3300-NAMRU3/2008(H5N1)); test: protein microarray, purified IgG, trimeric HA
[16] = molecular target: recombinant homotrimeric HA A/Hong Kong/156/97 H5N1 (Influenza A virus A/Hong Kong/156/97 (H5N1)); test: protein microarray, purified IgG, trimeric HA
[17] = molecular target: recombinant homotrimeric HA A/Hong Kong/2108/03 H9N2 (Influenza A virus A/HK/2108/2003(H9N2)); test: protein microarray, purified IgG, trimeric HA
[18] = molecular target: recombinant homotrimeric HA A/Japan/305/57 H2N2 (Influenza A virus A/Japan/305/1957(H2N2)); test: protein microarray, purified IgG, trimeric HA
[19] = molecular target: recombinant homotrimeric HA A/Netherlands/219/03 H7N7 (Influenza A virus A/Netherlands/219/03(H7N7)); test: protein microarray, purified IgG, trimeric HA
[20] = molecular target: recombinant homotrimeric HA A/South Carolina/1/18 H1N1 (Influenza A virus A/South Carolina/1/18 (H1N1)); test: protein microarray, purified IgG, trimeric HA
[21] = molecular target: recombinant homotrimeric HA A/Vietnam/1203/04 H5N1 (Influenza A virus A/VietNam/1203/2004(H5N1)); test: protein microarray, purified IgG, trimeric HA
[22] = molecular target: recombinant homotrimeric HA A/Wisconsin/67/05 H3N2 (Influenza A virus A/Wisconsin/67/2005(H3N2)); test: protein microarray, purified IgG, trimeric HA
[23] = molecular target: T1, recombinant soluble homotrimeric HA of …; test: trimeric HA microarray, transfection supernatant set 5
[24] = molecular target: T2, recombinant soluble homotrimeric HA of …; test: as above
[25] = molecular target: recombinant soluble homotrimeric HA of A/Hong Kong/156/97 (H5N1) (Influenza A virus A/Hong Kong/156/97 (H5N1)); test: as above
[26] = molecular target: T3, recombinant soluble homotrimeric HA of …; test: as above
[27] = molecular target: T4, recombinant soluble homotrimeric HA of …; test: as above
[28] = molecular target: T5, recombinant soluble homotrimeric HA of …; test: as above
[29] = molecular target: recombinant soluble homotrimeric HA of A/South Carolina/1/18 (H1N1) (Influenza A virus A/South Carolina/1/18 (H1N1)); test: as above
[30] = molecular target: T6, recombinant soluble homotrimeric HA of …; test: as above
[31] = molecular target: T7, recombinant soluble homotrimeric HA of …; test: as above
[32] = molecular target: T8, recombinant soluble homotrimeric HA of …; test: as above
[33] = molecular target: T9, recombinant soluble homotrimeric HA of …; test: as above
[34] = molecular target: T10, recombinant soluble homotrimeric HA of …; test: as above

B1: TCN-537 (3194_D21) (antibody, V domains shown)
VH: QVQLQQWGSGLLKPSETLSLTCAVYGGSFRDDYWTWIRQPPGKGLEWIGEINHSGRTNYNPSLKSRVTISVDTSLKQFSLKVISVTAADTAVYYCARGTSHVSRYFDWLPPTNWFDPWGQGTQVTVSS
VL: DIVLTQSPGTLSLSPGERATLSCRASQSVSSSYLAWYQQKPGQAPRLVMYGAATRATGIPDRFSGSGSGPDFTLTISRLEPEDFAMYYCQQYGNSPITFGQGTRLEIK
Trimeric HA Binding: RLU [1]: 335 RLU
Trimeric HA Binding: RLU [2]: 21900 RLU
Trimeric HA Binding: RLU [3]: 38200 RLU
Trimeric HA Binding: RLU [4]: 147 RLU
Trimeric HA Binding: RLU [5]: 14900 RLU
Trimeric HA Binding: RLU [6]: 44700 RLU
Trimeric HA Binding: RLU [7]: 1050 RLU
Trimeric HA Binding: RLU [8]: 80 RLU
Trimeric HA Binding: RLU [9]: 549 RLU
Trimeric HA Binding: RLU [10]: 8620 RLU
Trimeric HA Binding: RLU [11]: 7830 RLU
Trimeric HA Binding: RLU [12]: 5210 RLU
Trimeric HA Binding: RLU [13]: 19 RLU
Trimeric HA Binding: RLU [14]: 10200 RLU
Trimeric HA Binding: RLU [15]: 3190 RLU
Trimeric HA Binding: RLU [16]: 862 RLU
Trimeric HA Binding: RLU [17]: 171 RLU
Trimeric HA Binding: RLU [18]: 19500 RLU
Trimeric HA Binding: RLU [19]: 729 RLU
Trimeric HA Binding: RLU [20]: 2840 RLU
Trimeric HA Binding: RLU [21]: 5690 RLU
Trimeric HA Binding: RLU [22]: 154 RLU
Trimeric HA Binding: RLU [23]: 33800 RLU
Trimeric HA Binding: RLU [24]: 33500 RLU
Trimeric HA Binding: RLU [25]: 10700 RLU
Trimeric HA Binding: RLU [26]: 2420 RLU
Trimeric HA Binding: RLU [27]: 16200 RLU
Trimeric HA Binding: RLU [28]: 3650 RLU
Trimeric HA Binding: RLU [29]: 46800 RLU
Trimeric HA Binding: RLU [30]: 50300 RLU
Trimeric HA Binding: RLU [31]: 1940 RLU
Trimeric HA Binding: RLU [32]: 4480 RLU
Trimeric HA Binding: RLU [33]: 25500 RLU
Trimeric HA Binding: RLU [34]: 3280 RLU
